System: DasR K78Q (Saccharopolyspora erythraea NRRL2338)
Experiment: BLI
Settings: BLI: 10 mM HEPES pH 8.0, 2 mM MgCl2, 0.1 mM EDTA, 200 mM KCl (running buffer + 10 µg/mL BSA, 0.02% Tween-20), SA sensor, temperature not stated; EMSA: 5 nM …

**Q.** Which Kd does the source give for disA promoter probe here?
**A.** 20 µM
